Measured values as given in article PMC10769282.

What follows are substances tested against SARS-CoV-2 Spike, BA.1 variant of concern, 21-amino-acid truncated form (SARS-CoV-2 (BA.1)) (UniProt P0DTC2).

Substance | IC50, neutralisation of BA.1 Spike pseudovirus
SA58 VH T53L A61S (antibody) | 12 µg/mL
SA58 VH T53L A61S, VL N95V (antibody) | 11 µg/mL
SA58 VL S54T (antibody) | 12 µg/mL
